Here are results for one molecule from US20220048996A1 (F STAR BETA, published 2022).

Usually EC50 stands for the midpoint of the concentration-response curve.

For test [1], the target named is T1, hFcγR1 (R&D Systems 1257-FC-050/CF) (human, UniProt P12314 16-288).
T1 construct: Bought; also called FcγRI
Nature of the test: SPR, antibody 100 nM on CD137-his chip co-injected with FcγR 500 nM. The method, then:
(§1) Binding was tested on a Biacore 3000 instrument (GE Healthcare). Human OX40 (BPS Bioscience cat no 71310) and human CD137 (produced in house) biotinylated his-tagged antigens were coated onto an SA chip (GE Healthcare cat no BR100398) at 2 μM concentration. Human OX40 and human CD137 were coated on separate flow cells, while another flow cell was left blank for background subtraction. Regeneration conditions were determined to be 12 μl aqueous 10 mM glycine-HCl at pH2.0 at 20 μl/min flow rate. Antibodies (see Table 8) and human FcγRs (see Table 8) were diluted to 100 nM (antibodies) or 500 nM (human FcγRs) in HBS-P (0.01 M HEPES pH 7.4, 0.15 M NaCl, 0.005% v/v Surfactant P20, GE Healthcare, BR-1003-68) and co-injected at 20 μl/min flow rate and the dissociation was followed for 5 min.
(§2) Data analysis was performed with BiaEvaluation software version 3.2 RC1 by referencing against the blank flow cell and aligning the curves after the association of the antibody. Values for binding response at the end of the association phase were generated by subtracting the […] to normalize the effect of the antibody binding to the OX40 and CD137 receptors.
(In SPR one partner is held on a chip, and binding of the other changes the refractive index at the surface.)

Test [2] concerns the target T2, hFcγR3a (R&D Systems 4325-FC-050/CF) (human, UniProt P08637 17-208).
T2 construct: Bought; In the ADCC bioassay FcγRIIIa stood on engineered Jurkat cells; also called FcγRIIIa
Described as above. The method, then: as §1, §2

For test [3], the target named is T3, hFcγR2a (R&D Systems 1330-CD-050/CF) (human, UniProt P12318 36-218, limits assumed).
T3 construct: Bought; also called FcγRIIa
T3 sequence (looked up): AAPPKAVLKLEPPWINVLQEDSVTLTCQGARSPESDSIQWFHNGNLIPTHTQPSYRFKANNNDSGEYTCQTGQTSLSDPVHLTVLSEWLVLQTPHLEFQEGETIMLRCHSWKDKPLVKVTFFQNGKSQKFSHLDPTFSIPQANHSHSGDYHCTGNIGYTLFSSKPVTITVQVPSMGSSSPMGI
The test is described as above. How it is done:
as §1, §2

Test [4] has as its target T4, hFcγR2b (R&D Systems 1460-CD-050/CF) (human, UniProt P31994 46-217, limits assumed).
T4 construct: Bought; also called FcγRIIb
T4 sequence (looked up): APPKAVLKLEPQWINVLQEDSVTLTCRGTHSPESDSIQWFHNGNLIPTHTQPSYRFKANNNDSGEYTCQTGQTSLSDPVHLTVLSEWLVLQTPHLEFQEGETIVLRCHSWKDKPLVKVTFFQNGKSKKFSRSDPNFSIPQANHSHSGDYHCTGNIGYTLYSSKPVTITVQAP
Described as above. How it is done:
as §1, §2

Test [5] concerns the target T5, cynomolgus CD137 expressed on DO11.10 cells (DO11.10-cCD137) (cynomolgus monkey, UniProt Q07011 24-255 (human entry)).
T5 chain: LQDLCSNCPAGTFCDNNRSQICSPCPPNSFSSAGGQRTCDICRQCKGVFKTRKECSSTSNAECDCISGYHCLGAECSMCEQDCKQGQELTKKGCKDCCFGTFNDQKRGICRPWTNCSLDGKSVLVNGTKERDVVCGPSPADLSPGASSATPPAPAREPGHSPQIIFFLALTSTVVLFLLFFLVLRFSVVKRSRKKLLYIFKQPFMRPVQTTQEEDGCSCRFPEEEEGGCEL
Nature of the test: flow cytometry on DO11.10 cells expressing the target. On the technique in general: In flow cytometry, cells or beads pass a laser one at a time.

Test [6] deals with T6, human CD137 expressed on DO11.10 cells (DO11.10-hCD137) (human, UniProt Q07011 24-255).
T6 construct: also called CD137 on human T cells
The test is described as above.

Test [7] addresses T7, human OX40 expressed on DO11.10 cells (DO11.10-hOX40) (human, UniProt P43489 29-277).
T7 construct: Also used here for OX40 on primary human T cells in the functional rows; also called human OX40 receptor; OX40 on human T cells
T7 sequence: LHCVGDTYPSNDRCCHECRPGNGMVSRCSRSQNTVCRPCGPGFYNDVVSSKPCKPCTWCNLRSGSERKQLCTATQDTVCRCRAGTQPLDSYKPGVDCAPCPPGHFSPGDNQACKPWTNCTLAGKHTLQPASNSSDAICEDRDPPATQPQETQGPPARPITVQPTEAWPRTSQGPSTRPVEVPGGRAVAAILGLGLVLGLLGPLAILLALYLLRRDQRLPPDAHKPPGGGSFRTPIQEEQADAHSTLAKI
The description is as above.

The target of test [8] is T6, human CD137 expressed on DO11.10 cells …. Description: cell-based or functional assay.
Target sequence in this assay (Q07011 24-255): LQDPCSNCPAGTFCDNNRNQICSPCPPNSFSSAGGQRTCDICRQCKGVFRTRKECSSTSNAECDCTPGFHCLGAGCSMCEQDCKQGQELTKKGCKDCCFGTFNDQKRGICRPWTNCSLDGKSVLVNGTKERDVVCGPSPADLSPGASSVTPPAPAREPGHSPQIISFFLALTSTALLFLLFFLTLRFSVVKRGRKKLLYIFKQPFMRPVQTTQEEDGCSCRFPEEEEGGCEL
For test [9], the target named is T7, human OX40 expressed on DO11.10 cells …. Nature of the test: cell-based or functional assay.
Test [10] has the same target. Nature of the test: cell-based or functional assay. The source holds these as a separate data set.

T1 sequence (P12314 16-288 limits assumed): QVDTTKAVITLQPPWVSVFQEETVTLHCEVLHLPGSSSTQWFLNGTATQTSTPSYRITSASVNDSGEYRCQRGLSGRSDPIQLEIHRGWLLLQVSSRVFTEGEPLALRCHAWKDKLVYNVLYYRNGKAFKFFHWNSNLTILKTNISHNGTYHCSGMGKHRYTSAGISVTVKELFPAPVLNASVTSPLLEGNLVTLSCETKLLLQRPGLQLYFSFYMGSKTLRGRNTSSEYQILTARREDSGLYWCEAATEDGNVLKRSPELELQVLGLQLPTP
T2 sequence (P08637 17-208 limits assumed): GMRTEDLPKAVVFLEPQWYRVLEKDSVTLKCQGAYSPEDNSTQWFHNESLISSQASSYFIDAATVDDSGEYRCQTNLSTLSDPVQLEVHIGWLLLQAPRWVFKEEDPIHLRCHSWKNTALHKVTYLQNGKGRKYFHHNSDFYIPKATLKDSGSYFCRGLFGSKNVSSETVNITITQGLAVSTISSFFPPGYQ

B1: FS20-22-49AA/FS30-10-16 (bispecific antibody, human IgG1, kappa, L234A L235A)
heavy: EVQLLESGGGLVQPGGSLRLSCAASGFTFSSYDMSWVRQAPGKGLEWVSDIDPTGSKTDYADSVKGRFTISRDNSKNTLYLQMNSLRAEDTAVYYCARDLLVYGFDYWGQGTLVTVSSASTKGPSVFPLAPSSKSTSGGTAALGCLVKDYFPEPVTVSWNSGALTSGVHTFPAVLQSSGLYSLSSVVTVPSSSLGTQTYICNVNHKPSNTKVDKKVEPKSCDKTHTCPPCPAPEAAGGPSVFLFPPKPKDTLMISRTPEVTCVVVDVSHEDPEVKFNWYVDGVEVHNAKTKPREEQYNSTYRVVSVLTVLHQDWLNGKEYKCKVSNKALPAPIEKTISKAKGQPREPQVYTLPPSRDEYWDQEVSLTCLVKGFYPSDIAVEWESNGDEQFAYKTTPPVLDSDGSFFLYSKLTVDQYRWNPADYFSCSVMHEALHNHYTQKSLSLSPG
light: EIVLTQSPGTLSLSPGERATLSCRASQSVSSSYLAWYQQKPGQAPRLLIYGASSRATGIPDRFSGSGSGTDFTLTISRLEPEDFAVYYCQQSYSYPVTFGQGTKVEIKRTVAAPSVFIFPPSDEQLKSGTASVVCLLNNFYPREAKVQWKVDNALQSGNSQESVTEQDSKDSTYSLSSTLTLSKADYEKHKVYACEVTHQGLSSPVTKSFNRGEC
notes: IgG1 with LALA; also called OX40/CD137 mAb^2; copies: 2 + 2
For the molecule B1, in test [1], the “binding response at end of association phase of FcγR” value is 246 RU and the “decrease of binding response at end of dissociation phase of FcγR” value was found to be 367 RU. Also, in [2], the “binding response at end of association phase of FcγR” value was 17.3 RU. Also, the “binding response at end of association phase of FcγR” value in test [3] came to 10.9 RU. Besides, the “binding response at end of association phase of FcγR” value in test [4] amounted to 9 RU. Moreover, the EC50 in test [5] came out at 0.0803 nM. In test [6], this molecule had an EC50 of 0.129 nM. The molecule further yielded an EC50 in test [7] of 0.157 nM. Also, in test [8], the “CD8+ T cell activation assay, hIL-2 release EC50, crosslinked” value stood at 1.98 nM and the “CD8+ T cell activation assay, hIL-2 release EC50, no crosslinker” value is 0.118 nM. Besides, in [9], the “CD4+ T cell activation assay, hIL-2 release EC50, crosslinked” value worked out at 0.0833 nM and the “CD4+ T cell activation assay, hIL-2 release EC50, no crosslinker” value is 0.113 nM. Besides, in test [10], the “SEA assay (PBMC), hIL-2 max response, crosslinked” value turned out to be 33800 pg/mL; the “SEA assay (PBMC), hIL-2 max response, no crosslinker” value is 35100 pg/mL; the “SEA assay (PBMC), hIL-2 release EC50, crosslinked” value came to 0.1 nM; the “SEA assay (PBMC), hIL-2 release EC50, no crosslinker” value turned out to be 0.14 nM.
